For series [1], the target named is T1, FANCM C-terminal fragment (FANCMCTD), residues 1,799-2,048 (human, UniProt Q8IYD8 1799-2048).
T1 sequence (looked up): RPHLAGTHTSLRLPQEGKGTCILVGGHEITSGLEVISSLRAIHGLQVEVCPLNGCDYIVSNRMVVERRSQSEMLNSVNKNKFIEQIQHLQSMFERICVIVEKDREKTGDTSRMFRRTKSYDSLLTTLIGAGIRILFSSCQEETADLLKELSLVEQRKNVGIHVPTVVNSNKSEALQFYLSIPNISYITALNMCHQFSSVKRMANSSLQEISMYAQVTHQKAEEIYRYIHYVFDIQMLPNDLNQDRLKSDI
The series can be described thus: crystal structure.

The target in series [2] is full-length FANCM (N-terminal Flag-tag, C-terminal 8His-tag) (human, UniProt Q8IYD8 1-2048). Briefly: negative-stain single particle electron microscopy.
In another series the target is T2, FANCM CTD;FAAP24 (human?;human?, UniProt Q8IYD8;Q9BTP7 1799-2048;1-215, |).
T2 sequence 1: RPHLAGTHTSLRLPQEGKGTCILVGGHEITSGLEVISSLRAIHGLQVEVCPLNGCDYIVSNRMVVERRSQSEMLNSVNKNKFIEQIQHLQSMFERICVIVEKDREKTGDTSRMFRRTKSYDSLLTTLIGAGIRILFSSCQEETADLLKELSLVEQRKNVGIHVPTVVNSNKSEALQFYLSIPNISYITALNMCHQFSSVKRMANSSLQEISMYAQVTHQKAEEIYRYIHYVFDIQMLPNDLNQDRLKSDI
T2 sequence 2: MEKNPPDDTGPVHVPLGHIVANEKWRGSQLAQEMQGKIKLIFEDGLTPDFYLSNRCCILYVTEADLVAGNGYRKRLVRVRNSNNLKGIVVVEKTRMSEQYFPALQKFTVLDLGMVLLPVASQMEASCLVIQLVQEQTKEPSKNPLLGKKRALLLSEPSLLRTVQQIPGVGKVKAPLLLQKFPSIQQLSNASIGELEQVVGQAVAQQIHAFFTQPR
The series can be described thus: X-ray crystallography.

B1: FAAP24 (full length), partner in the FANCMCTD-FAAP24 complex (natural protein, human, UniProt Q9BTP7 1-215, looked up)
chain: MEKNPPDDTGPVHVPLGHIVANEKWRGSQLAQEMQGKIKLIFEDGLTPDFYLSNRCCILYVTEADLVAGNGYRKRLVRVRNSNNLKGIVVVEKTRMSEQYFPALQKFTVLDLGMVLLPVASQMEASCLVIQLVQEQTKEPSKNPLLGKKRALLLSEPSLLRTVQQIPGVGKVKAPLLLQKFPSIQQLSNASIGELEQVVGQAVAQQIHAFFTQPR
As to B1, the binding result in series [1] is recorded as “binds”.

B2: FAAP24, untagged, co-expressed with full-length FANCM (natural protein, human, UniProt Q9BTP7 1-215, looked up)
chain: MEKNPPDDTGPVHVPLGHIVANEKWRGSQLAQEMQGKIKLIFEDGLTPDFYLSNRCCILYVTEADLVAGNGYRKRLVRVRNSNNLKGIVVVEKTRMSEQYFPALQKFTVLDLGMVLLPVASQMEASCLVIQLVQEQTKEPSKNPLLGKKRALLLSEPSLLRTVQQIPGVGKVKAPLLLQKFPSIQQLSNASIGELEQVVGQAVAQQIHAFFTQPR
Take B2: the binding result in series [2] was “binds”.

B3: 11 bp crystallization duplex (dsDNA)
DNA 1: GATGATGCTGA
DNA 2: TCAGCATCATC
For B3, the binding result in the series with FANCM CTD;FAAP24 was “binds”.

These data come from article PMC3763369 (Structure(London, England:1993), 2013).
